Results reported in patent publication US20140037626A1, “Metal Abstraction Peptide With Release of Metal” (Echogen, Inc., priority 2012, published 2014).
Ends that are not written are not given here.

How the values were obtained:
[1] = pH-dependent release of nickel from MAP peptides by absorption spectroscopy; assay type: physicochemical; conditions: FIG. 9; intensity at 415 nm with decreasing pH
Method: The loss of absorbance intensity corresponds to loss of metal from the complex, as the absorption features that are observed for Ni-MAP are due to ligand to metal charge transfer (LMCT) bands and d to d transitions. By monitoring the intensity of one specific peak (415 nm for the pentapteptide) with decreasing pH, the percent of the complex remaining at each pH unit was calculated and plotted (FIG. 9).
pH release experiments were then performed (FIG. 16), and release curves were prepared for each of the six peptides (FIG. 17).

[2] = pH-dependent release of platinum from MAP peptides (absorption, NMR, MS); assay type: physicochemical; conditions: low pH (pH 2.47 with excess ammonium chloride in FIG. 10)
Method: Because Pt is bound to ammonia and chloride ligands in the common inorganic complex cisplatin, the release experiment was also performed in the presence of excess ammonium chloride. […] Additionally, ^1H NMR of the GGNCC (SEQ ID NO.:1), and Pt-GGNCC (SEQ ID NO.:1) at low pH were all performed.
MS data was obtained at low pH when solvent (DMSO) was added to the peptide-metal complex before dropping the pH, to keep some of the species that result from metal release soluble. Although a small amount of a yellow precipitate formed, the peptide returned to the apo state and remained in solution as determined by MS (FIG. 12). By adding DMSO to the solution, a similar release experiment was performed using absorption spectroscopy. […] The loss of absorbance intensity corresponded to loss of metal from the complex. The loss of intensity was monitored at 315 nm, as this is a significant, yet unique, feature in the Pt-NCC spectral profile, and pH dependent release curve was prepared (FIG. 13).

| Substance | pH range in which pH-dependent release of nickel occurs rapidly [1] | precipitation of the Pt-peptide complex at low pH [2] |
| --- | --- | --- |
| GNNCC: nickel complex of the pentapeptide GNNCC (SEQ ID NO.:2) (cysteine pairing not given here; also: nickel complex) | 6-7 pH |  |
| Pt-GGNCC: platinum complex of the pentapeptide GGNCC (SEQ ID NO.:1) (cysteine pairing not given here; also: platinum complex) |  | Precipitation occurred |
